For assay [1], the target named is myristoylated human Arf1, GTP-bound form, anchored on membrane (nanodiscs or LUVs) (human) (UniProt P84077). The experiment in a line: not stated; binding of the K391A mutant, shown in Fig. SI5.
For assay [2] the target is unchanged.
Assay [3] concerns the target myrArf1 with Glu54 mutated to Ala (human) (UniProt P84077).
The target in assay [4] is myristoylated human Arf1, GTP-bound form, anchored on membrane (nanodiscs or LUVs) (human) (UniProt P84077). This is another data set of the same source.

Chain of myristoylated human Arf1, GTP-bound form, anchored on membrane (nanodiscs or LUVs) (human) (P84077 whole entry): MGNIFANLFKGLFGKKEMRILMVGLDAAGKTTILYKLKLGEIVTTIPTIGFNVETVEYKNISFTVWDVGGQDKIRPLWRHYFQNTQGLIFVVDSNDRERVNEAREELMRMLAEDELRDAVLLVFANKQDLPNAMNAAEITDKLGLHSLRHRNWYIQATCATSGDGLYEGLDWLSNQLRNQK
Chain of myrArf1 with Glu54 mutated to Ala (human) (P84077 other isoform, or with tags, fused parts or gaps, change not shown): as the sequence (P84077 whole entry) above, with E54A counted along it
Chain of ΔN14 PZA (PZA without residues 325–338) (Q9QWY8 339-724, stated change not applied): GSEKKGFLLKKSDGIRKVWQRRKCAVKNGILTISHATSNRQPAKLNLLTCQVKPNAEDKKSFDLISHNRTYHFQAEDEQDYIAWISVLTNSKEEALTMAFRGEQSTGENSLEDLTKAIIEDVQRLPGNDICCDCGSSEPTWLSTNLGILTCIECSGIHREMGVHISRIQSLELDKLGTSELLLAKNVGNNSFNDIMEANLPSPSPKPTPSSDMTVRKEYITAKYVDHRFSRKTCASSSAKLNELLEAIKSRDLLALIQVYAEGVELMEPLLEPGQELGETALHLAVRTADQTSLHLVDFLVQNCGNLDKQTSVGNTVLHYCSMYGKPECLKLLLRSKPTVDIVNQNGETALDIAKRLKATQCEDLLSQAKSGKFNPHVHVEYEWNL
Chain of PZA with Lys391 mutated to Ala (Q9QWY8 other isoform, or with tags, fused parts or gaps, change not shown): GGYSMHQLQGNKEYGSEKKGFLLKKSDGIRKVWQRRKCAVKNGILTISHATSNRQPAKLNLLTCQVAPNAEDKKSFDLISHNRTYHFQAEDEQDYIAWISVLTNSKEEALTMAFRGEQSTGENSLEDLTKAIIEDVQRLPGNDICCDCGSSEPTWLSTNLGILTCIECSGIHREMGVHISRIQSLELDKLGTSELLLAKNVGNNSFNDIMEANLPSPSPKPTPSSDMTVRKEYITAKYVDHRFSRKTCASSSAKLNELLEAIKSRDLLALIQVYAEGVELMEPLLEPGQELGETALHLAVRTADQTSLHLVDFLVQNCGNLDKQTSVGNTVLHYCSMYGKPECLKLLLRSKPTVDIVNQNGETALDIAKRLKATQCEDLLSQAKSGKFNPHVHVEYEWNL
Chain of PZA with Phe438 mutated to Ala (Q9QWY8 other isoform, or with tags, fused parts or gaps, change not shown): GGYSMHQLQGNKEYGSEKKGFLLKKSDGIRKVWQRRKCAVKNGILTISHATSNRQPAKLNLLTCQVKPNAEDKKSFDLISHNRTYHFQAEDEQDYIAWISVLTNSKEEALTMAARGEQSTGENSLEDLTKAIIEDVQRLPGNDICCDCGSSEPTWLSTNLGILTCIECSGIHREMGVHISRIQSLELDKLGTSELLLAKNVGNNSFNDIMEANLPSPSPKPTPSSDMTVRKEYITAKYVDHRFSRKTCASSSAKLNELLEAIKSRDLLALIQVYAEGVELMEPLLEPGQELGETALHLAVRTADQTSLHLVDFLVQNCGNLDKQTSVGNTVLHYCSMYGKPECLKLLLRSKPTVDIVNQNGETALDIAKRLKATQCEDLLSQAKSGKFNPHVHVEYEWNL
Chain of PZA with His405 mutated to Glu (Q9QWY8 other isoform, or with tags, fused parts or gaps, change not shown): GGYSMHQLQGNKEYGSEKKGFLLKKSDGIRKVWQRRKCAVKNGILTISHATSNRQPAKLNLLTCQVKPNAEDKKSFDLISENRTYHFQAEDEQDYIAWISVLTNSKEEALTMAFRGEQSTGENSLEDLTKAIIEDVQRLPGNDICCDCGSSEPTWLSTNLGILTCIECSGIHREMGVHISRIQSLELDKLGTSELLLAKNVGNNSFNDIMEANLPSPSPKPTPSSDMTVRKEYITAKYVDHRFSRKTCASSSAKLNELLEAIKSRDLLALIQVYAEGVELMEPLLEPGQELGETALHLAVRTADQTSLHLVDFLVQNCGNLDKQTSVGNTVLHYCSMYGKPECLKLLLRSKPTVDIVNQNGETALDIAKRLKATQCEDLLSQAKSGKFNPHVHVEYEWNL
Chain of wt PZA, [325–724]ASAP1 (PH, Arf GAP and ankyrin repeat domains) (Q9QWY8 325-724): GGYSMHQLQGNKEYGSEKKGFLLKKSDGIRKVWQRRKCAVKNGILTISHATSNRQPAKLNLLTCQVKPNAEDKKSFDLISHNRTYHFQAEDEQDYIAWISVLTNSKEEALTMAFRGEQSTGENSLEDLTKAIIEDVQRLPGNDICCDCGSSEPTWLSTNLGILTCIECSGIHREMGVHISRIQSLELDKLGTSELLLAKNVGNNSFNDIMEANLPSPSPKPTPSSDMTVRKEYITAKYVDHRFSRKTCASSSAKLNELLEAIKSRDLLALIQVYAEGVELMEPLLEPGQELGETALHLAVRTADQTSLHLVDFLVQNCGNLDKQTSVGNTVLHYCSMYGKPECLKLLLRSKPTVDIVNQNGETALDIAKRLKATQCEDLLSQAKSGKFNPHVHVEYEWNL

The substance “ASAP1 PH domain with Lys391 mutated to Ala (from UniProt Q9QWY8 325-451) (domain or fragment)” had a fold reduction of binding against wild type in assay [1] of 2 fold.
In assay [2], “PZA with His405 mutated to Glu (from UniProt Q9QWY8 325-724) (domain or fragment)” yielded an ArfGAP activity (C50: concentration of PZA for 50% GTP hydrolysis in 3 min), fold reduction against wild type of 5 fold.
On to “PZA with Lys391 mutated to Ala (from UniProt Q9QWY8 325-724) (domain or fragment)”, for which the ArfGAP activity (C50: concentration of PZA for 50% GTP hydrolysis in 3 min), fold reduction against wild type in assay [2] was 100 fold.
Same read-out and setting: next, “PZA with Phe438 mutated to Ala (from UniProt Q9QWY8 325-724) (domain or fragment)”: 15 fold.
As for “wt PZA, [325–724]ASAP1 (PH, Arf GAP and ankyrin repeat domains) (from UniProt Q9QWY8 325-724) (domain or fragment)”, the ArfGAP activity (C50: concentration of PZA for 50% GTP hydrolysis in 3 min), fold reduction against wild type in assay [3] was found to be 70 fold.
With “ΔN14 PZA (PZA without residues 325–338) (from UniProt Q9QWY8 339-724) (domain or fragment)”, the GAP activity relative to wt PZA (fold of wt PZA) in assay [4] was less than 0.01.

The values above are taken from doi:10.1101/2024.12.20.629688.
